The values that follow come from patent publication US20140057830A1 (COMPLIX, published 2014).

Sequences and labels used below:
B1: SEQ ID NO 64 (designed binder)
chain: GSIEQIQKVIARIQEPIAVIQKMIYAMTGGSGGSGGGSIEQIQKQIAAIQKQIAAIQKQIYAMTGSGGGGSGGSIEQIQKQISAIRSQILAIIRQIFAMTP
notes: Alphabody, AC12 library clone
B2: SEQ ID NO 70 (designed binder)
chain: GSIEQIQKCIAFIQERIAGIQKRIYAMTGGSGGSGGGSIEQIQKQIAAIQKQIAAIQKQIYAMTGSGGGGSGGSIEQIQKQIFAIGKQIFAIVKQILAMTP
notes: Alphabody, AC12 library clone
B3: SEQ ID NO 71 (designed binder)
chain: GSIEQIQKPIAAIQEKIARIQKRIYAMTGGSGGSGGGSIEQIQKQIAAIQKQIAAIQKQIYAMTGSGGGGSGGSIEQIQKQIMAINRQILAILRQILAMTP
notes: Alphabody, AC12 library clone
B4: SEQ ID NO 77 (designed binder)
chain: GSIEQIQKGIAAIQEWIATIQKRIYAMTGGSGGSGGGSIEQIQKQIAAIQKQIAAIQKQIYAMTGSGGGGSGGSIEQIQKQIRAITIQIIAIIQQIWAMTP
notes: Alphabody, AC12 library clone
B5: SEQ ID NO 65 (designed binder)
chain: GSIEQIQKTIAKIQERIAWIQKVIYAMTGGSGGSGGGSIEQIQKQIAAIQKQIAAIQKQIYAMTGSGGGGSGGSIEQIQKQIKAISYQIIAIMRQILAMTP
notes: Alphabody, AC12 library clone
B6: SEQ ID NO 73 (designed binder)
chain: GSIEQIQKFIASIQECIASIQKVIYAMTGGSGGSGGGSIEQIQKQIAAIQKQIAAIQKQIYAMTGSGGGGSGGSIEQIQKQIGAIAAQIIAIVEQIVAMTP
notes: Alphabody, AC12 library clone
B7: SEQ ID NO 74 (designed binder)
chain: GSIEQIQKKIAYIQEMIALIQKGIYAMTGGSGGSGGGSIEQIQKQIAAIQKQIAAIQKQIYAMTGSGGGGSGGSIEQIQKQISAIAAQISAIIKQIMAMTP
notes: Alphabody, AC12 library clone
B8: SEQ ID NO 67 (designed binder)
chain: GSIEQIQKVIAWIQESIASIQKRIYAMTGGSGGSGGGSIEQIQKQIAAIQKQIAAIQKQIYAMTGSGGGGSGGSIEQIQKQIQAIANQITAIVRQIIAMTP
notes: Alphabody, AC12 library clone
B9: SEQ ID NO 104 (designed binder)
chain: GSIEQIQKNIAYIQERIATIQKKIYRMTGGSGGSGGGGSGGSGGGSIEQIQKQIAAIQKQIAAIQKQIYAMTGSGGGGSGGSGGGGSGGSIEQIQKQIGAIAEQILAIVKQIRAMTP
notes: Alphabody, AC11b library clone
B10: SEQ ID NO 107 (designed binder)
chain: GSIEQIQKPIARIQETIAIIQKTIYRMTGGSGGSGGGGSGGSGGGSIEQIQKQIAAIQKQIAAIQKQIYAMTGSGGGGSGGSGGGGSGGSIEQIQKQITAIREQIRAIWKQIPAMTP
notes: as for B9
B11: SEQ ID NO 99 (designed binder)
chain: GSIEQIQKPIAEIQEIIARIQKKIYIMTGGSGGSGGGGSGGSGGGSIEQIQKQIAAIQKQIAAIQKQIYAMTGSGGGGSGGSGGGGSGGSIEQIQKQISAIGEQIFAIVKQIYAMTP
notes: as for B9
B12: SEQ ID NO 96 (designed binder)
chain: GSIEQIQKWIACIQECIAGIQKEIYIMTGGSGGSGGGGSGGSGGGSIEQIQKQIAAIQKQIAAIQKQIYAMTGSGGGGSGGSGGGGSGGSIEQIQKQIRAISEQIYAIIKQISAMTP
notes: as for B9
B13: SEQ ID NO 103 (designed binder)
chain: GSIEQIQKPIASIQELIAMIQKAIYWMTGGSGGSGGGGSGGSGGGSIEQIQKQIAAIQKQIAAIQKQIYAMTGSGGGGSGGSGGGGSGGSIEQIQKQIVAISEQIMAIIKQIGAMTP
notes: as for B9
B14: SEQ ID NO 102 (designed binder)
chain: GSIEQIQKIIASIQEPIARIQKGIYRMTGGSGGSGGGGSGGSGGGSIEQIQKQIAAIQKQIAAIQKQIYAMTGSGGGGSGGSGGGGSGGSIEQIQKQIGAIAEQILAIFKQIRAMTP
notes: as for B9
B15: SEQ ID NO 122 (designed binder)
chain: GSIEQIQKRIAPIQESIAGIQKRIYRMTGGSGGSGGGGSGGSGGGSIEQIQKQIAAIQKQIAAIQKQIYAMTGSGGGGSGGSGGGGSGGSIEQIQKQIRAITEQIGAILKQIFAMTP
notes: as for B9
B16: SEQ ID NO 105 (designed binder)
chain: GSIEQIQKRIARIQEKIAWIQKPIYQMTGGSGGSGGGGSGGSGGGSIEQIQKQIAAIQKQIAAIQKQIYAMTGSGGGGSGGSGGGGSGGSIEQIQKQIRAIREQIGAILKQIKAMTP
notes: as for B9
B17: SEQ ID NO 95 (designed binder)
chain: GSIEQIQKPIALIQERIATIQKLIYGMTGGSGGSGGGGSGGSGGGSIEQIQKQIAAIQKQIAAIQKQIYAMTGSGGGGSGGSGGGGSGGSIEQIQKQISAIAEQILAISKQIWAMTP
notes: as for B9
B18: SEQ ID NO 114 (designed binder)
chain: GSIEQIQKRIARIQEPIAGIQKRIYMMTGGSGGSGGGGSGGSGGGSIEQIQKQIAAIQKQIAAIQKQIYAMTGSGGGGSGGSGGGGSGGSIEQIQKQIRAIAEQIVAIAKQIVAMTP
notes: as for B9
B19: hFlt3L_cl4 (designed binder)
chain: HMSIEEIQKQIAAIQKQIAAIQKQIYAMTGGSGGGSGGGSGGGSGMSIEEIQKQIAAIQKQIAAIQKQIYAMTGGSGGGSGGGSGGGSGMSIEEIQDQILNIQWQIHDIQQQIIVMTPGG

The first assay concerns the target T1, human IL-23 (human, UniProt Q9NPF7 20-189; P29460 23-328).
T1 construct: Heterodimer p19/p40; in the ELISA captured on the plate through a biotinylated anti-p40 antibody (clone C8.6); also called cytokine IL-23 (eBioscience, 34-8239-85)
T1 sequence (looked up) 1: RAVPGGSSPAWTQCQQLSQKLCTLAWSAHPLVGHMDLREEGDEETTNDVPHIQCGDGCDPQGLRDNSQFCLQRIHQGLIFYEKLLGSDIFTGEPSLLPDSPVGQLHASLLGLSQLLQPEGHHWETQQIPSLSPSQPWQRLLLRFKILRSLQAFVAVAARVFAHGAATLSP
T1 sequence (looked up) 2: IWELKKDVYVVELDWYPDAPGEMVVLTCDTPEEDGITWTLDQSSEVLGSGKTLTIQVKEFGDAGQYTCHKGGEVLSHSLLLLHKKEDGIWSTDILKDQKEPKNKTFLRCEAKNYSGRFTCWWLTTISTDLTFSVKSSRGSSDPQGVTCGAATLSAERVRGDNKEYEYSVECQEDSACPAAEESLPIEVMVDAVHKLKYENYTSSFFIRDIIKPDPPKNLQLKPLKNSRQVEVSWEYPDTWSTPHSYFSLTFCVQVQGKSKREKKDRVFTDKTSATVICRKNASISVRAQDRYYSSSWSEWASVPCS
Put plainly: phage ELISA; IL-23 captured by anti-p40 antibody. How it is done: The set-up of the ELISA was as follows. Neutravidin was immobilized on the plate at a concentration of 0.010 mg/ml in PBS (0.100 ml) for 1 hour at room temperature (RT). Plates were washed 5 times with PBS containing 0.05% Tween 20 (PBST) for 5 min. Subsequently, 0.1 ml Biotinylated anti-p40 antibody (100 nM) was added to the plates in PBS containing 0.1% BSA and incubated overnight at 4° C. or at RT for 1 hour. After incubation, plates were washed 5 times with PBST and blocked with PBS containing 0.1% BSA and 0.5% gelatin (0.120 ml/well) for at least 1 hour at room temperature or overnight at 4° C. After washing 5 times with PBST, 100 nM IL-23 (target) was added to 0.1 ml PBS, 0.1% BSA. For individual negative controls no IL-23 was added (background).
In the meantime, the bacteria plates were centrifuged at 1700 rpm for 10 min to pellet the bacteria. Plates with the immobilized IL-23 were washed 5 times with PBST and 0.050 ml of PBS with 0.2% BSA were added to the plate together with 0.050 ml of the bacterial culture supernatant containing phage. Plates were incubated for 1 to 1.5 hours at room temperature while shaking. Shaking of the plates enhanced the ELISA signals.
In the case of B1, the binding result is “binds”. Still for that read-out and setting: the entry for B2 is “binds”; for B3 it is “binds”. As to B4, the binding result was “binds”.

Take B5: the binding result is recorded as “binds”. Still for that read-out and setting: the entry for B6 is “binds”; for B7 it is “binds”; for B8 it is “binds”.

With B9, the binding result is recorded as “binds”. On to B10, for which the binding result was “binds”. The same measure, in the same setting: the entry for B11 is “binds”; for B12 it is “binds”. Same read-out and setting: the entry for B13 is “binds”. On the same count and under the same terms, the entry for B14 is “binds”; for B15 it is “binds”; for B16 it is “binds”.

As for B17, the binding result is listed as “binds”.

On to B18, for which the binding result is “binds”.

The next assay has as its target T2, human Flt3L (human, UniProt P49771 27-160, limits assumed).
T2 construct: Biotinylated form used in biopanning and phage ELISA; unlabelled in ITC and crystallography; also called hFlt3L; Flt3 ligand
T2 sequence (looked up): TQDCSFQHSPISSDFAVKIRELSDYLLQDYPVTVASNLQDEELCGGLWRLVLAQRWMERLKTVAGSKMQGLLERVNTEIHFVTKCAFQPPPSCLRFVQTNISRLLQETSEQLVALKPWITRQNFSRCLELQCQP
Put plainly: isothermal titration calorimetry, 37 C, triplicate. How it is done: (§1) The binding of Alphabody hFlt3L_cl4 to the target hFlt3L was tested by isothermal titration calorimetry (ITC) in order to determine its dissociation constant (KD), thermodynamic parameters (ΔH, ΔS) and binding stoichiometry. Prior to the measurements, Alphabody and target samples were dialyzed against 20 mM HEPES buffer containing 150 mM NaCl, pH 7.4. The ITC measurements were performed in triplicate at a temperature of 37° C. In each experiment, hFlt3L, which exists as a stable dimer in solution, was loaded into the cell (at concentrations 3.0 μM, 6.5 μM and 7.0 μM of hFlt3L dimer, respectively) and hFlt3L_cl4 was loaded in the syringe (at concentrations of 41.35 μM, 89.62 μM and 89.62 μM, respectively). […] This implies that, since the concentrations of hFlt3L were given for the dimeric complex (hFlt3L)₂, only one hFlt3L_cl4 Alphabody binds to one hFlt3L dimer.
For orientation: In ITC the heat of successive injections is recorded.
In the case of B19, the Ka was 4.95e+06 M⁻¹, the ΔG was -39.7 kJ/mol, the ΔH was -69.5 kJ/mol and the ΔS was -22.9 cal/(mol·K).

The target of the next assay is T2, human Flt3L. Put plainly: isothermal titration calorimetry, 37 C, triplicate; hFlt3L dimer in the cell, Alphabody in the syringe. On the procedure: as §1
As a reminder, the Kd is the concentration at which binding is half-saturated. The molecule B19 returned a Kd of 0.202 µM.
